Data on six molecules can be found in paper PMC3410853 (PLoS Pathogens, 2012).

For series [1], the target named is porcine aminopeptidase N (pAPN) on the surface of BHK-pAPN cells (UniProt P15145). In words: flow cytometry on cells (FACS, percentage of stained cells). The settings on record: same concentration of wild type and mutant SA-Fc proteins, parent: est. 100, read off a plot.
In series [2] the target is SA-Fc fusion protein (bivalent SA-Fc variant; TGEV S residues 481 to 650). The description is as above. As to conditions: transiently transfected 293T cells expressing similar amounts of HA-tagged pAPN proteins; parent: est. 100; read off a plot.
The target in series [3] is T1, SA-Fc fusion protein (bivalent SA-Fc variant; TGEV S residues 481 to 650) (Transmissible gastroenteritis virus …, strain).
T1 construct: not shown: HA, N-terminal, kept; Fc (human IgG1), C-terminal, kept
T1 chain: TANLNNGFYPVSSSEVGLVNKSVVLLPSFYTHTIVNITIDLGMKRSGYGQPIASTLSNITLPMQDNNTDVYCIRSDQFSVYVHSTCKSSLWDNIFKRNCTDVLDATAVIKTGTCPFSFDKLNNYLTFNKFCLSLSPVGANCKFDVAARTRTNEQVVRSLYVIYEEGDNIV
In words: ELISA. A general note: In an ELISA, binding on a coated surface is turned into a signal by an enzyme label.

Series [4] concerns the molecule itself. In words: SEC; soluble pAPN ectodomain on Superdex 200 16/60, HEPES-saline buffer pH 7.5. (In gel filtration, larger molecules generally elute earlier.)

“SA-Fc fusion protein (bivalent SA-Fc variant; TGEV S residues 481 to 650) N632A”: the percent of parent in series [1] turned out to be 15%.

As to “SA-Fc fusion protein (bivalent SA-Fc variant; TGEV S residues 481 to 650) V617Ngly”, the percent of parent in series [1] was determined as 105%.

For “recombinant membrane bound pAPN with an HA tag at the C-terminal end (from UniProt P15145) N736A”, the percent of parent in series [2] is 3%.

Turning to “recombinant membrane bound pAPN with an HA tag at the C-terminal end (from UniProt P15145) T738V”, in series [2], the percent of parent worked out at 3%.

B1: TGEV-neutralizing monoclonal antibody 1AF10 (site A, subsite Ac) (antibody, V domains shown)
VH: QVQLQQSGPELVKPGASVKISCKASGYAFSSSWMNWVKQRPGQGLEWIGRIYPGDGETNYSEKFKGKATLTADKSSSTAYMHLSSLTSVDSAVYFCARGGYRYDPYYAMDYWGQGTSVTVSS
VL: DILLTQSPAILSVSPGERVSLSCRASQSIGTSIHWYQQRTNGSPRPLIKYASESISGIPSRFSGSGSGTDFTLNINSVESEDIADYFCQQTDSWPTTFGAGTKLELK
notes: also called 1AF10 mAb; mAb 1AF10; source: hybridoma cells; purified mAb or hybridoma supernatant; copies: 2 + 2
Consider B1, for which the binding result in series [3] was “binds”.

B2: engineered soluble pAPN (ectodomain, residues 36 to 963) (domain or fragment)
chain: EKNKNAEHVPQAPTSPTITTTAAITLDQSKPWNRYRLPTTLLPDSYNVTLRPYLTPNADGLYIFKGKSIVRLLCQEPTDVIIIHSKKLNYTTQGHMVVLRGVGDSQVPEIDRTELVELTEYLVVHLKGSLQPGHMYEMESEFQGELADDLAGFYRSEYMEGNVKKVLATTQMQSTDARKSFPCFDEPAMKATFNITLIHPNNLTALSNMPPKGSSTPLAEDPNWSVTEFETTPVMSTYLLAYIVSEFQSVNETAQNGVLIRIWARPNAIAEGHGMYALNVTGPILNFFANHYNTSYPLPKSDQIALPDFNAGAMENWGLVTYRENALLFDPQSSSISNKERVVTVIAHELAHQWFGNLVTLAWWNDLWLNEGFASYVEYLGADHAEPTWNLKDLIVPGDVYRVMAVDALASSHPLTTPAEEVNTPAQISEMFDSISYSKGASVIRMLSNFLTEDLFKEGLASYLHAFAYQNTTYLDLWEHLQKAVDAQTSIRLPDTVRAIMDRWTLQMGFPVITVDTKTGNISQKHFLLDSESNVTRSSAFDYLWIVPISSIKNGVMQDHYWLRDVSQAQNDLFKTASDDWVLLNVNVTGYFQVNYDEDNWRMIQHQLQTNLSVIPVINRAQVIYDSFNLATAHMVPVTLALDNTLFLNGEKEYMPWQAALSSLSYFSLMFDRSEVYGPMKKYLRKQVEPLFQHFETLTKNWTERPENLMDQYSEINAISTACSNGLPQCENLAKTLFDQWMSDPENNPIHPNLRSTIYCNAIAQGGQDQWDFAWGQLQQAQLVNEADKLRSALACSNEVWLLNRYLGYTLNPDLIRKQDATSTINSIASNVIGQPLAWDFVQSNWKKLFQDYGGGSFSFSNLIQGVTRRFSSEFELQQLEQFKKNNMDVGFGSGTRALEQALEKTKANIKWVKENKEVVLNWFIEHS
Regarding B2, in series [4], the stoichiometry N (commonly a count of units in the complex or per binding partner) is 2.
